Test [1] has as its target T1, cynomolgus monkey PD-1 (SPR analyte) (cynomolgus monkey, UniProt B0LAJ3 25-170).
T1 construct: also called cyPD-1
In words: SPR, KD on cyPD-1 against KD on hPD-1. Background: In SPR one partner is held on a chip, and binding of the other changes the refractive index at the surface.

Test [2] concerns the target T2, human PD-1 (SPR analyte) (human, UniProt Q15116 25-167, limits assumed).
T2 construct: Soluble analyte in SPR; also called hPD-1
Briefly: SPR (Biacore 8K), binder captured on anti-Fc chip, target as analyte, 1:1 model.

Test [3] has as its target T3, human 4-1BB (SPR analyte) (human, UniProt Q07011 24-186).
T3 construct: also called h4-1BB
The test is described as above.

In test [4] the target is T4, cynomolgus monkey 4-1BB expressed on 300.19 pre-B cells (cynomolgus monkey, UniProt A9YYE7 24-254).
T4 construct: whole, on cells; also called cy4-1BB; Pre-B cy4-1BB
In words: flow cytometry on transfected 300.19 pre-B cells. (In general: Flow cytometry measures light scatter and fluorescence of single cells or particles in a stream.)

Test [5] deals with T5, human 4-1BB expressed on cells (300.19 pre-B cells, Jurkat NF-κB-luc2P cells, primary T-cells) (human, UniProt Q07011 24-255).
T5 construct: also called h4-1BB; Pre-B h4-1BB
T5 sequence (Q07011 24-255 limits assumed): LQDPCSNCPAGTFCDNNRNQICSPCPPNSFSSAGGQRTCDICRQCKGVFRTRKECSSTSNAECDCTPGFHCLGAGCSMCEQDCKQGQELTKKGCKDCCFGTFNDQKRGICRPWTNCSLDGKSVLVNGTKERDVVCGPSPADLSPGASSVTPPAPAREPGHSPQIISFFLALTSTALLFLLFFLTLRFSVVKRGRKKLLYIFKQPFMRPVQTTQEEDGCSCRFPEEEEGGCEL
In words: flow cytometry on transfected 300.19 pre-B cells.

Test [6] has as its target T6, cynomolgus monkey PD-1 expressed on 300.19 pre-B cells (cynomolgus monkey, UniProt B0LAJ3 25-288).
T6 construct: also called cyPD-1; Pre-B cyPD-1
In words: flow cytometry on transfected 300.19 pre-B cells.

Test [7] addresses T7, human PD-1 expressed on cells (300.19 pre-B cells, PD-1 NFAT-luc2 Jurkat cells, primary T-cells) (human, UniProt Q15116 25-288).
T7 construct: GenBank NP 005009.2 printed; also called hPD-1; Pre-B hPD-1
Briefly: flow cytometry on transfected 300.19 pre-B cells.

For test [8], the target named is T5, human 4-1BB expressed on cells (300.19 …). In words: cell-based or functional assay.
The target of test [9] is T7, human PD-1 expressed on cells (300.19 …). Briefly: cell-based or functional assay.
Test [10] has as its target T2, human PD-1 (SPR analyte). In words: SPR (Biacore 8K), binder captured on anti-Fc chip, target as analyte, 1:1 model. The source holds these as a separate data set.
Test [11] addresses T1, cynomolgus monkey PD-1 (SPR analyte). The test is described as above.
Test [12] addresses T3, human 4-1BB (SPR analyte). The test is described as above. This is another data set of the same source.
Test [13] concerns the target T8, cynomolgus monkey 4-1BB (SPR analyte) (cynomolgus monkey, UniProt A9YYE7 24-186).
T8 construct: also called cy4-1BB
T8 sequence: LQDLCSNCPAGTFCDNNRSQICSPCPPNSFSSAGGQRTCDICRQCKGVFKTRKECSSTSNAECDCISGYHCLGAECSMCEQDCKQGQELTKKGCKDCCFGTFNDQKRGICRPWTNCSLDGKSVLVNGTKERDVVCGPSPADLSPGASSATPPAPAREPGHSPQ
The description is as above.

For test [14], the target named is T8, cynomolgus monkey 4-1BB (SPR analyte). Briefly: SPR, KD on cy4-1BB against KD on h4-1BB.
The target in test [15] is T5, human 4-1BB expressed on cells (300.19 …). In words: flow cytometry on Jurkat reporter cells.
Test [16] has as its target T7, human PD-1 expressed on cells (300.19 …). Briefly: flow cytometry on Jurkat reporter cells.

Where two headings read alike, the source gives them in different places.

T7 sequence (Q15116 25-288 limits assumed): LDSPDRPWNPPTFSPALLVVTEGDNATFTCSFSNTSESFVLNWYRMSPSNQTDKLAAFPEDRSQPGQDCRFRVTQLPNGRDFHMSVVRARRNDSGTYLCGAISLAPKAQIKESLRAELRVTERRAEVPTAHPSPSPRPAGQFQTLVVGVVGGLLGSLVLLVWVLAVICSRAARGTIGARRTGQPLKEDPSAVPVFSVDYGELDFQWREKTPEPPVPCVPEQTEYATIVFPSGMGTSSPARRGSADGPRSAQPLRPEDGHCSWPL
T2 sequence (Q15116 25-167 limits assumed): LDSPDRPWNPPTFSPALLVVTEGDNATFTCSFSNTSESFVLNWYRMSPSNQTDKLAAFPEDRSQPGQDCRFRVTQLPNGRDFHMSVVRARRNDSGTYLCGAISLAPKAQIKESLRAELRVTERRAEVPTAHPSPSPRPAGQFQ
T1 sequence (B0LAJ3 entry or part of it limits assumed): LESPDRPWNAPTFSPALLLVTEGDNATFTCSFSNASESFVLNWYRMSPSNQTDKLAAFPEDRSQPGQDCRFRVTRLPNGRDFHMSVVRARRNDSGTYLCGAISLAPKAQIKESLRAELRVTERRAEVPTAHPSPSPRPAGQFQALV
T6 sequence (B0LAJ3 entry or part of it limits assumed): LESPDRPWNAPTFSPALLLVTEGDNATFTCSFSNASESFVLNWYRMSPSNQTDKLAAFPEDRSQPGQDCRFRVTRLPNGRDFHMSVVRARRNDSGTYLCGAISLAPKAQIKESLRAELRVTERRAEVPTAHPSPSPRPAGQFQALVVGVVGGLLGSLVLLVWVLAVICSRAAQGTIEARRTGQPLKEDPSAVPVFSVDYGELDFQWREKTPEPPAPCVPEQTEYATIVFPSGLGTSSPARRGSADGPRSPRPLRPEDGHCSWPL

B1: Construct #3 (anti-4-1BB/anti-PD-1 bispecific binding molecule) (bispecific antibody, IgG1)
heavy: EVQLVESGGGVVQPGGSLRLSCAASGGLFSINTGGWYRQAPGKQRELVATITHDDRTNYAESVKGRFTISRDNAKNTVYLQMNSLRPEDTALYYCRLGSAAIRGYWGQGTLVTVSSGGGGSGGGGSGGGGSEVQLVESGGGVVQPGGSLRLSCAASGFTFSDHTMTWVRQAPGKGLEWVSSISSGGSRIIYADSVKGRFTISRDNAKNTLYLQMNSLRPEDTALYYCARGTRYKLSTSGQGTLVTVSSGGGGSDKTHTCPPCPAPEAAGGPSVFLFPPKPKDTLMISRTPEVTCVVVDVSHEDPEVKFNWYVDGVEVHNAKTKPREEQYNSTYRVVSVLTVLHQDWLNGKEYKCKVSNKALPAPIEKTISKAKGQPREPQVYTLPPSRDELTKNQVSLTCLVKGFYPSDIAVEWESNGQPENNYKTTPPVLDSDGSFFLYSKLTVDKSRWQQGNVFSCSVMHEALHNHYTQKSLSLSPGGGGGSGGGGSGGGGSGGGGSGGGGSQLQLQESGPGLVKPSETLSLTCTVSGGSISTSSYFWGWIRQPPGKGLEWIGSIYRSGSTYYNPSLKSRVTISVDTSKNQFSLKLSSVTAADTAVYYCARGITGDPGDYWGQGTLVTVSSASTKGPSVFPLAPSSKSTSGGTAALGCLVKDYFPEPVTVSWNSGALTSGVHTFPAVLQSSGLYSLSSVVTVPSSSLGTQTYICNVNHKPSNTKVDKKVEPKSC
light: EIVLTQSPATLSLSPGERATLSCGASQSVSINFLAWYQQKPGLAPRLLIYEASSRATGIPDRFSGSGSGTDFTLTISRLEPEDFAVYYCQQYGSSPYTFGQGTKLEIKRTVAAPSVFIFPPSDEQLKSGTASVVCLLNNFYPREAKVQWKVDNALQSGNSQESVTEQDSKDSTYSLSSTLTLSKADYEKHKVYACEVTHQGLSSPVTKSFNRGEC
notes: also called Original Construct #3
By Kd is commonly meant the free concentration of one partner at which half of the binding sites on the other are occupied at equilibrium, for simple one-to-one binding. What is called EC50 is the midpoint of the concentration-response curve. For the molecule B1, the “Ratio KD cyno/human” value in test [1] came to 2.6 fold; in [14], 2.1 fold. The equilibrium dissociation constant (Kd) in test [2] is 16 nM; in test [3], 7.82 nM; in test [10] it was 7.05 nM; in test [11], 18.2 nM; in [12], 11.8 nM; in test [13] it was 25.1 nM. Also, the EC50 in [4] is 0.312 nM; in [5] it was 0.299 nM; in [6], 7.77 nM; in test [7], 3.69 nM; in test [15], 0.191 nM; in [16], 12.3 nM. Further, the Emax amounted to 13800 MFI in [6], 3750 MFI in [7] and 321 MFI in test [16]. Also, the “EC50 (nM) 4-1BB reporter assay” value in [8] was 0.1 nM. Besides, the “IC50 (nM) PD-1 reporter assay” value in test [9] was 6.7 nM.

The values are drawn from patent publication US20240262923A1 (Sanofi, published 2024).
